Measurements taken from patent US20240083958A1, “G PROTEIN PEPTIDOMIMETICS” (VRIJE UNIVERSITEIT BRUSSEL, priority 2020, published 2024).
Bridge positions count the residues as written; N and C are the ends. Square brackets hold non-standard residues; d marks the D form. Primed or numbered codes have the meaning given here. Peptide text beside a SMILES is read from it. ξ: configuration not given here. Azk = residue with azidated side chain, clicked to Pra; Pra′ = residue with alkynyl side chain, clicked to Azk; Lys(N3) = [N-]=[N+]=NCCCC[C@H](N)C(=O)O; 1Nal = N[C@@H](Cc1cccc2ccccc12)C(=O)O; 2Nal = N[C@@H](Cc1ccc2ccccc2c1)C(=O)O; Aad = N[C@@H](CCCC(=O)O)C(=O)O; Cha = N[C@@H](CC1CCCCC1)C(=O)O; Ile(3ξ) = CCC(C)[C@H](N)C(=O)O; S5 = C=CCCC[C@](C)(N)C(=O)O; Pra = C#CC[C@H](N)C(=O)O

Key:
human β2AR [1] = biological target: T1, human β2AR (Homo sapiens, UniProt P07550, N187E); assay: Radioligand binding assay (RLA) with human β2AR, 3H-dihydroalprenolol (DHA) as radioligand, isoproterenol (agonist) as cold competitor, in presence and absence of the peptidomimetic; design: key to Shift: ratio IC50 basal (no peptide) / IC50 with peptidomimetic
T1 construct: made in house; host or cells: Sf9 insect cells (Bac-to-Bac baculovirus); membrane extracts
Protocol: β2AR365N constructs were expressed in Sf9 insect cells, using the Bac-to-Bac® Baculovirus Expression System. The membrane extracts were prepared from cells that expressed β2AR. Subsequently, the cell pellet was resuspended in a buffer (1 ml buffer/2×1E7 cells) containing 75 mM Tris pH 7.4, 12.5 mM MgCl2, 1 mM EDTA, Leupeptin and PMSF as protease inhibitors. Afterwards the cells were vortexed and homogenized in ice using a small volume Ultraturrax (6×10 sec). The cells were then centrifuged for 15 min at 16000 rcf, in a pre-cooled centrifuge (4° C.) and resuspended in the previous buffer containing 10% sucrose. Finally, the membranes were again homogenized in ice with the small volume Ultraturrax (3×10 sec). The protein concentration in the membrane fragments was determined using a Pierce BCA Protein Assay Kit and the protein concentration was extrapolated from the Bovine Serum Albumine standard curve.
To perform the radioligand competition binding assays, 96-well plates were used. For the assays on β2AR, the membrane extracts as well as the peptides were prepared in a binding buffer (75 mM Tris pH 7.4, 12.5 mM MgCl2, 1 mM EDTA, 0.2% BSA). The ligand (isoproterenol) and radioligand ([^3H]-dihydroalprenolol) were dissolved in ligand buffer (75 mM Tris pH 7.4, 12.5 mM MgCl2, 1 mM EDTA, 0.2% BSA and 0.1% ascorbic acid), at 1 mM and 2 nM, respectively. A ten-fold dilution series of the ligand was prepared to obtain a dose response curve. For each reaction 100 μl membrane extract, 50 μl ligand, 50 μl peptide or binding buffer containing 1% DMSO and 50 μl of radioligand was added to the V-bottom storage plate, with a total volume of 250 μl per well. Afterwards, the plates were incubated at room temperature for 2 h on a plate shaker (150 rpm). The samples were harvested into filter plates and washed with ice cold washing buffer (75 mM Tris pH 7,4) using the 96-well harvester. The plates were dried for 1 h at 50° C. and then sealed to allow the addition of 30 μl scintillation liquid to each well. Finally, the top of each plate was sealed and the plates were placed in a Wallac MICROBETA® Trilux scintillation counter and incubated for 30 min in the dark.
After the Microbeta scintillation counter, the experimental data was further analyzed using Graphpad Prism 6.0. After normalization of the raw data, a nonlinear regression was used to fit the data in a one-site binding model, with the total binding set as 100% and the non-specific binding between 0 and 5%. The IC50 values, obtained from the competition curves, were used to determine the shift for each peptide, which is the ratio of IC50 of the agonist test compound on the basal conformation (e.g. IC50 β2AR with no peptidomimetic) versus the active conformation (e.g. IC50 β2AR+peptidomimetic) of the receptor. For certain peptide analogues, a biphasic binding curve was observed and therefore fitted by a two-site model (nonlinear regression), resulting in two IC50 values (IC50Hi and IC50Lo) and a FractionHi, the fraction of receptors in the active state.
Synthesised peptidomimetics were evaluated using a radioligand binding assay (RLA) with a human β2AR, using ^3H-dihydroalprenolol (DHA) as the radioligand and increasing concentrations of isoproterenol (agonist) as cold competitor. In particular, the pharmacological stabilization of the receptor in the active conformation was evaluated by performing the radioligand displacement assay (RLA) in the presence and absence of the peptidomimetics. This validated assay quantifies the pharmacological stabilization of the receptor in the active conformation by comparing the affinities of an agonist for the basal versus the active GPCR conformer (Pardon et al. (2018) Angewandte Chemie International Edition 57, 5292-5295). During the assay, the binding affinity of an orthosteric agonist for the receptor, in particular isoproterenol for human β2AR, in presence and absence of the allosteric peptidomimetic was determined. […]

human β2AR [2] = biological target: human β2AR (human, UniProt P07550 2-365); assay: cell-based or functional assay
[3] = Table 18a overview, averaged values of IC50 shift

Molecule: CCC(C)[C@@H]1NC(=O)[C@@](C)(NC(=O)[C@H](CC(=O)O)NC(=O)[C@H](CCCNC(=N)N)NC(=O)[C@H](CS)NC(=O)[C@H](CC(=O)O)NC(=O)[C@H](CC(N)=O)NC(=O)[C@H](Cc2ccccc2)NC(C)=O)CCC/C=C\CCC[C@@](C)(C(=O)N[C@@H](Cc2c[nH]cn2)C(=O)N[C@@H](CC(C)C)C(=O)N[C@@H](CCCNC(=N)N)C(=O)N[C@@H](CCC(N)=O)C(=O)N[C@@H](Cc2ccc(O)cc2)C(=O)N[C@@H](CCC(=O)O)C(=O)N[C@@H](CC(C)C)C(=O)N[C@@H](CC(C)C)C(=O)O)NC(=O)[C@H](CCCNC(=N)N)NC(=O)[C@H](CCC(N)=O)NC1=O (some centres unmarked) [compound 8, Ac-FNDCRD[S5IQRS5]HLRQYELL-OH] (Ac-FNDCRD[S5][Ile(3ξ)]QR[S5]HLRQYELL-OH; staple (Z) 7-11)
- Shift (human β2AR [1]; Table 4, ratio IC50 β2AR alone / IC50 β2AR + peptidomimetic): 2
- Shift (human β2AR [1]; [3]): 3

Molecule: Ac-KKKFN[PraCRDAzk]IQRMHLRQ1-NaIELL-OH (Ac-KKKFN[Pra′]CRD[Azk]IQRMHLRQ[1Nal]ELL-OH; triazole 6-10) [compound 57]
- Shift (human β2AR [1]; Table 18c overview, averaged values of IC50 shift): 49

Molecule: Ac-FN[PraCRDAzk]IQRMHLRQYELL-OH (Ac-FN[Pra′]CRD[Azk]IQRMHLRQYELL-OH; triazole 3-7) [compound 12]
- Shift (human β2AR [1]; Table 8, ratio IC50 β2AR alone / IC50 β2AR + modulator): 37

Molecule: Ac-FN[ECRDK]IQRMHLRQYELL-OH [compound 24]
- Shift (human β2AR [1]; Table 6, ratio IC50 β2AR alone / IC50 β2AR + peptidomimetic): 7
- Shift (human β2AR [1]; [3]): 7

Molecule: RDIIQRMHLRQYELL [compound 16, Ac-RDIIQRMHLRQYELL-OH]
- Shift (human β2AR [1]; Table 1, ratio IC50 β2AR alone / IC50 β2AR + peptidomimetic): 1
- Shift (human β2AR [1]; Table 18b overview, averaged values of IC50 shift): 1

B1: compound 48 (peptide)
peptide: Ac-KFN[Pra′]CRD[Azk]IQRMHLRQYEIL-OH
modifications: triazole 4-8
- Shift (averaged) (human β2AR [2]): 8

B2: compound 56 (peptide)
peptide: Ac-KKKFN[Pra′]CRD[Azk]IQRMHLRQWELL-OH
modifications: triazole 6-10
- Shift (averaged) (human β2AR [2]): 53

B3: compound 64 (peptide)
peptide: Ac-RDIIQR[Lys(N3)]HLR[Pra′]YE[Cha]L-OH
modifications: triazole 7-11
- Shift (averaged) (human β2AR [2]): 81

B4: compound 83 (peptide)
peptide: Ac-NARRIFNDARDIIQRMHLRQYEWL-OH
- Shift (averaged) (human β2AR [2]): 9

B5: compound 34 (peptide)
peptide: Ac-FN[Pra′]CRD[Azk]IQRMHLRQYELI-OH
modifications: triazole 3-7
- Shift (averaged) (human β2AR [2]): 29

B6: compound 39 (peptide)
peptide: Ac-FN[Pra′]CRD[Azk]IQRMHLRQYDLL-OH
modifications: triazole 3-7
- Shift (averaged) (human β2AR [2]): 52

B7: compound 46 (peptide)
peptide: Ac-KFN[Pra′]CRD[Azk]IQRMHLRQYELI-OH
modifications: triazole 4-8
- Shift (averaged) (human β2AR [2]): 51

B8: compound 49 (peptide)
peptide: Ac-KKKFN[Pra′]CRD[Azk]IQRMHLRQYEIL-OH
modifications: triazole 6-10
- Shift (averaged) (human β2AR [2]): 11

B9: compound 70 (peptide)
peptide: Ac-FNDCRDIIQRMHLRQYEYL-OH
- Shift (averaged) (human β2AR [2]): 2

B10: compound 52 (peptide)
peptide: Ac-KFN[Pra′]CRD[Azk]IQRMHLRQY[Aad]LL-OH
modifications: triazole 4-8
- Shift (averaged) (human β2AR [2]): 53

B11: compound 65 (peptide)
peptide: Ac-KKKRDIIQR[Lys(N3)]HLR[Pra′]YE[Cha]L-OH
modifications: triazole 10-14
- Shift (averaged) (human β2AR [2]): 63

B12: compound 54 (peptide)
peptide: Ac-KFN[Pra′]CRD[Azk]IQRMHLRQYDLL-OH
modifications: triazole 4-8
- Shift (averaged) (human β2AR [2]): 91

B13: compound 55 (peptide)
peptide: Ac-KKKFN[Pra′]CRD[Azk]IQRMHLRQYDLL-OH
modifications: triazole 6-10
- Shift (averaged) (human β2AR [2]): 72

B14: compound 75 (peptide)
peptide: Ac-FNDARDIIQRMHLRQYELL-OH
- Shift (averaged) (human β2AR [2]): 5

B15: compound 35 (peptide)
peptide: Ac-FN[Azk]CRD[Pra′]IQRMHLRQYELL-OH
modifications: triazole 3-7
- Shift (averaged) (human β2AR [2]): 5

B16: compound 37 (peptide)
peptide: Ac-FN[Pra′]CRD[Azk]IQRMHLRQY[Aad]LL-OH
modifications: triazole 3-7
- Shift (averaged) (human β2AR [2]): 35

B17: compound 71 (peptide)
peptide: Ac-FNDCRDIIQRMHLRQYEHL-OH
- Shift (averaged) (human β2AR [2]): 1

B18: compound 57 (peptide)
peptide: Ac-KKKFN[Pra]CRD[Lys(N3)]IQRMHLRQ[1Nal]ELL-OH
modifications: triazole 6-10
- Shift (averaged) (human β2AR [2]): 49

B19: compound 81 (peptide)
peptide: Ac-NARRIFNDARDIIQRMHLRQYELL-OH
- Shift (averaged) (human β2AR [2]): 8

B20: compound 27 (peptide)
peptide: Ac-FN[Pra′]CRD[Azk]IQRMHLRQYQLL-OH
- Shift (averaged) (human β2AR [2]): 4

B21: compound 28 (peptide)
peptide: Ac-FN[Pra′]CRD[Azk]IQRMHLRQYQLL-OH
modifications: triazole 3-7
- Shift (averaged) (human β2AR [2]): 12

B22: compound 29 (peptide)
peptide: Ac-FN[Pra′]CRD[Azk]IQRMHLRQWELL-OH
- Shift (averaged) (human β2AR [2]): 4

B23: compound 36 (peptide)
peptide: Ac-FN[Pra′]CRD[Azk]IQRMHLRQYELL-NH2
modifications: triazole 3-7
- Shift (averaged) (human β2AR [2]): 1

B24: compound 53 (peptide)
peptide: Ac-KKKFN[Pra′]CRD[Azk]IQRMHLRQY[Aad]LL-OH
modifications: triazole 6-10
- Shift (averaged) (human β2AR [2]): 38

B25: compound 43 (peptide)
peptide: Ac-FN[Pra′]CRD[Azk]IQRMHLRQ[1Nal]ELL-OH
modifications: triazole 3-7
- Shift (averaged) (human β2AR [2]): 54

B26: compound 32 (peptide)
peptide: Ac-FN[Pra′]CRD[Azk]IQRMHLRQYEIL-OH
modifications: triazole 3-7
- Shift (averaged) (human β2AR [2]): 2

B27: compound 38 (peptide)
peptide: Ac-FN[Pra′]CRN[Azk]IQRMHLRQYELL-OH
modifications: triazole 3-7
- Shift (averaged) (human β2AR [2]): 7

B28: compound 47 (peptide)
peptide: Ac-KKKFN[Pra′]CRD[Azk]IQRMHLRQYELI-OH
modifications: triazole 6-10
- Shift (averaged) (human β2AR [2]): 64

B29: compound 58 (peptide)
peptide: Ac-KKKFN[Pra′]CRD[Azk]IQRMHLRQ[2Nal]ELL-OH
modifications: triazole 6-10
- Shift (averaged) (human β2AR [2]): 39

B30: compound 30 (peptide)
peptide: Ac-FN[Pra′]CRD[Azk]IQRMHLRQWELL-OH
modifications: triazole 3-7
- Shift (averaged) (human β2AR [2]): 9
